According to article doi:10.1101/2024.09.25.614941:
Like-named read-outs stand apart in the source and are kept apart here.

Tests used:
PfSir2A = target: T1, PfSir2A (UniProt Q8IE47); assay: EMSA
T1 sequence: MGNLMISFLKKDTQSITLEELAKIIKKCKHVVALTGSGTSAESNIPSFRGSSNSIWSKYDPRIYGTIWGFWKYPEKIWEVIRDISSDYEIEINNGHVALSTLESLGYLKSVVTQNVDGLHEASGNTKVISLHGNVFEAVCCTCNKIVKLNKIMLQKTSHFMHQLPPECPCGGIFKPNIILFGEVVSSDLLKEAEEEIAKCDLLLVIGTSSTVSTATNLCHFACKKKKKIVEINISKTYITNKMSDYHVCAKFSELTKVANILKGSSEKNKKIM

[1] = target: recombinant human 601-positioned nucleosome with histone H3 acetylated at lysine 9 (H3K9Ac dNuc) (human) (UniProt P68431); assay: native gel or EMSA

“H3K9Ac dNuc (human 601-positioned nucleosome)” gave a Kd (PfSir2A; histone H3 K9 acetylated, no DNA modification stated) of 1400 nM.

Work on “601 nucleosome assembly sequence DNA, 147 bp” yielded a Kd (PfSir2A) of 4000 nM.

B1: Plasmodium falciparum silent information regulator 2A (PfSir2A) (enzyme)
chain: MGNLMISFLKKDTQSITLEELAKIIKKCKHVVALTGSGTSAESNIPSFRGSSNSIWSKYDPRIYGTIWGFWKYPEKIWEVIRDISSDYEIEINNGHVALSTLESLGYLKSVVTQNVDGLHEASGNTKVISLHGNVFEAVCCTCNKIVKLNKIMLQKTSHFMHQLPPECPCGGIFKPNIILFGEVVSSDLLKEAEEEIAKCDLLLVIGTSSTVSTATNLCHFACKKKKKIVEINISKTYITNKMSDYHVCAKFSELTKVANILKGSSEKNKKIM
B1 showed a Kd [1] of 1400 nM.
